Experimental data reported in patent publication US20220378955A1 (ACTINIUM PHARMACEUTICALS, published 2022).
Each block holds one molecule with its values, some of them ahead of it.

Experiments:
[1] = target: mouse CD45 (mouse) (UniProt P06800); test: CD45+ cell-based binding assay of radiolabeled antibody
[2] = target: T1, human CD45 (human, UniProt P08575 26-1306); test: flow cytometry on Cytotrol cells, against naïve BC8 as reference
T1 construct: whole, on cells; BC8 is said to recognize all human isoforms; also called leukocyte common antigen (LCA); T200
T1 sequence (looked up): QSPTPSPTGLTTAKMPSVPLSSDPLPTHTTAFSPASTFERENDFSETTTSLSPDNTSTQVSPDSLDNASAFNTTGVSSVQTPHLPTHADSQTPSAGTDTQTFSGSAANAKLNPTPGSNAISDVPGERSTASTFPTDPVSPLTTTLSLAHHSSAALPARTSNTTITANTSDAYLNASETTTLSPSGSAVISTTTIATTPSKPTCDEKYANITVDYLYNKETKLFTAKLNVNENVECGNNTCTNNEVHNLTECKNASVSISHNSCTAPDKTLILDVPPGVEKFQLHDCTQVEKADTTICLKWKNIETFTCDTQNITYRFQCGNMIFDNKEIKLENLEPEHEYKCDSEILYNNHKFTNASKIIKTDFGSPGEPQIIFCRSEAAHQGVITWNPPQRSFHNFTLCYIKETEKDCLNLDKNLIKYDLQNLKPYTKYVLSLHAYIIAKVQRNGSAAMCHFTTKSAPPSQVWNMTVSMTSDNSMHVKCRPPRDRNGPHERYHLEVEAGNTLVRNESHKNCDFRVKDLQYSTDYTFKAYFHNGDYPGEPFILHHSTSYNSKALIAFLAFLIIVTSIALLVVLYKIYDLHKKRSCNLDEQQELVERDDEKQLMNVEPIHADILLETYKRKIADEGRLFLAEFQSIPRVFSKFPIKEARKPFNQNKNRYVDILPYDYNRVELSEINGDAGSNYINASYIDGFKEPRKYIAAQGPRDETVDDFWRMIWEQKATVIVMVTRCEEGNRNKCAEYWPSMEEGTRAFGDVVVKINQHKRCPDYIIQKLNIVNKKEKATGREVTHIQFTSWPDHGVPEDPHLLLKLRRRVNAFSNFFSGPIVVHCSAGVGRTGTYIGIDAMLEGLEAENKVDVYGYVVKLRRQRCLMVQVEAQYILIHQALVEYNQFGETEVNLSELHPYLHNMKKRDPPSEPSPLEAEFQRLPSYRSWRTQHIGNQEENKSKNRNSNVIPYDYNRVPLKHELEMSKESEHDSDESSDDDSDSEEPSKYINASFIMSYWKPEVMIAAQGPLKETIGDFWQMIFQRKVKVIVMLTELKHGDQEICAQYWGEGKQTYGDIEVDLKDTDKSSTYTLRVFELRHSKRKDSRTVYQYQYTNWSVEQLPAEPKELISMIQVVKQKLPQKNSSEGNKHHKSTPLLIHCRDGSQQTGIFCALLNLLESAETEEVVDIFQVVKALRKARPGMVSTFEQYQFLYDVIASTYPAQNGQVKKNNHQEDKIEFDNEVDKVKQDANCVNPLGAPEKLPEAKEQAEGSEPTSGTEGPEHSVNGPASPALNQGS
Text: Cytotrol cells (Beckman Coulter) were initially used to determine the binding of naïve BC8 antibody to those cells versus control 18B7 antibody (nonspecific control antibody against the fungal polysaccharide glucuronoxylomannan) by flow cytometry (FIG. 13A). The cells were taken up in RPMI medium, and the secondary antibody was PE labeled rat anti-mouse IgG1 from Biolegend.
Finally, we performed the side by side comparison of the binding of DOTA-BC8 sample to Cytotrol cells by flow cytometry (FIG. 14B), followed by immediate radiolabeling of the same sample with ²²⁵Ac and binding of the radiolabeled sample to Cytotrol cells (FIG. 14A). The binding of the DOTA-BC8 to the cells by flow cytometry (around 60% of the naïve BC8 binding) matched that of radiolabeled ²²⁵Ac-DOTA-BC8 to Cytotrol cells.

Chain of mouse CD45 (mouse) (P06800 26-1293): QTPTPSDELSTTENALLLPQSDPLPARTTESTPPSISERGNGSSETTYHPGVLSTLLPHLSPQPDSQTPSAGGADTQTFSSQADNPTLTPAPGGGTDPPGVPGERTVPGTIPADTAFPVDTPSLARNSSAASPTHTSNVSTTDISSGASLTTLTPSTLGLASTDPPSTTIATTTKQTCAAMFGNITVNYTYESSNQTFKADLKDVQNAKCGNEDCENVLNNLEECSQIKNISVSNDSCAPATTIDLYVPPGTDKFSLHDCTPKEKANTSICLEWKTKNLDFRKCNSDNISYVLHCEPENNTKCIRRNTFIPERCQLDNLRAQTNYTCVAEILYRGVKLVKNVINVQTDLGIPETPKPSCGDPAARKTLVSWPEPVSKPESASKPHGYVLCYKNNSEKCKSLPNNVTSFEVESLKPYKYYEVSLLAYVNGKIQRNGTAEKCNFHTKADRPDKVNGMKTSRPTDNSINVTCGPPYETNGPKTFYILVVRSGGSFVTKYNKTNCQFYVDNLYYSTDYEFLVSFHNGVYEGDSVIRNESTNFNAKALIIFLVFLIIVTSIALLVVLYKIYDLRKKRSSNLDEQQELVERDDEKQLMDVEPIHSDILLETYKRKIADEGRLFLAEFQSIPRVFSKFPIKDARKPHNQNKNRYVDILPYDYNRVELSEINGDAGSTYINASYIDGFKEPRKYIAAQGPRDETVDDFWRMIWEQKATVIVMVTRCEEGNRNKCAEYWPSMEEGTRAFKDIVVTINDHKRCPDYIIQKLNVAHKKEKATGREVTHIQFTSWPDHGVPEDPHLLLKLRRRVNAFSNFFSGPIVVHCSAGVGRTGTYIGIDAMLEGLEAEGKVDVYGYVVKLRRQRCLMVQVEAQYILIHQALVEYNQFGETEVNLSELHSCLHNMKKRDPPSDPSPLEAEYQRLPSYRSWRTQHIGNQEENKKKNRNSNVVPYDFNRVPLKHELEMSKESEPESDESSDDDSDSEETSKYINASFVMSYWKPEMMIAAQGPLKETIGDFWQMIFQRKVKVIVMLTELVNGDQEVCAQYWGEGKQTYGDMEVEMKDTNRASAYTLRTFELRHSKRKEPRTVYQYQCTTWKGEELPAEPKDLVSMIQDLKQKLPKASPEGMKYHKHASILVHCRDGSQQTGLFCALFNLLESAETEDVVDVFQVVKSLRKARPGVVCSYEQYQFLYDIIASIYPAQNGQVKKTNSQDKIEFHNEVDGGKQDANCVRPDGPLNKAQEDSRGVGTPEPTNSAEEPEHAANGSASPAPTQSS

immunoreactivity [1]: > 95%
Molecule: ^131I-labeled anti-mouse pan-CD45 antibody 30F11

immunoreactivity [1]: > 95%
Molecule: ^177Lu-labeled anti-mouse pan-CD45 antibody 30F11

binding relative to naïve BC8 [2]: ~60% | immunoreactivity relative to naïve BC8 [2]: ~70%
B1: DOTA-BC8 (BC8 conjugated with p-SCN-Bn-DOTA, batch A) (antibody, V domains shown)
VH: EVKLLESGGGLVQPGGSLKLSCAASGFDFSRYWMSWVRQAPGKGLEWIGEINPTSSTINFTPSLKDKVFISRDNAKNTLYLQMSKVRSEDTALYYCARGNYYRYGDAMDYWGQGTSVTVS
VL: DIALTQSPASLAVSLGQRATISCRASKSVSTSGYSYLHWYQQKPGQPPKLLIYLASNLESGVPARFSGSGSGTDFTLNIHPVEEEDAATYYCQHSRELPFTFGSGTKLEIKR
modifications: p-SCN-Bn-DOTA conjugated, sites not stated; p-SCN-Bn-DOTA conjugated, about 1.5 DOTA per antibody (batch A), sites not stated; Asn-141 partly deamidated to Asp
notes: Chelator conjugate of murine IgG1 BC8; also called unlabeled DOTA-BC8
